Test results taken from patent US11015206B2, “Compositions and methods comprising sequences having hydroxyphenylpyruvate dioxygenase (HPPD) activity” (PIONEER HI-BRED INTERNATIONAL, INC., priority 2014, dated 2021).

Legend:
Assay type in all cases: biochemical, Z. mays
[1] = test system: 4-hydroxyphenylpyruvate dioxygenase (HPPD); test: ON rate ratio: HPPD reaction rate with vs without inhibitor in the 70 to 90 second interval; settings: Table 5; tembotrione
How it was run: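 Indicator of inhibitor on-rate: reaction velocity in the 70 to 90 second window with 4 μM inhibitor divided by that without. Reactions contained 100 μM HPP and 60 or 120 nM HPPD; slower binding gives a larger ratio.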

[2] = test system: 4-hydroxyphenylpyruvate dioxygenase (HPPD); test: OFF rate ratio: release of inhibitor from pre-formed enzyme-inhibitor complex; settings: Table 5; tembotrione
How it was run: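 Inhibitor release from pre-formed complex (enzyme 7.2 μM, inhibitor 8 μM, 1 h RT) tracked as accelerating HPPD activity at 320 nm over 12 min, coupled via 50 nM HGD with 100 μM HPP at pH 7. OFF rate ratio: steady-state velocity relative to uninhibited initial velocity.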

[3] = test system: 4-hydroxyphenylpyruvate dioxygenase (HPPD); test: HPPD activity coupled assay with HGD; substrate saturation kinetic parameters (kcat, KM); settings: Table 6; for kcat: single substitutions in SEQ ID NO:2
How it was run: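 Coupled continuous assay: His-tagged HPPD (5 to 240 nM, E. coli-expressed, Ni-NTA-purified) with 50 nM P. aeruginosa HGD in 25 mM Hepes pH 7, 2 mM ascorbate, 10 μM FeSO4; maleylacetoacetate followed at 320 nm. KM and Vmax from Lineweaver-Burke fits over 3.33–100 μM HPP.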

[4] = test system: 4-hydroxyphenylpyruvate dioxygenase (HPPD); test: Estimate of kcat from initial rate at saturating hydroxyphenylpyruvate without inhibitor (ON rate ratio assay); settings: Table 5; single substitutions in Round 7 variant 9070 (SEQ ID NO:2); estimate from initial rate at saturating hydroxyphenylpyruvate without inhibitor
How it was run: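 kcat was estimated from the initial reaction rate with known enzyme level (60 or 120 nM HPPD). Hydroxyphenylpyruvate was at a saturating 100 μM, with no inhibitor present.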

[5] = test system: 4-hydroxyphenylpyruvate dioxygenase (HPPD); test: Insensitivity parameter (ON × OFF) and trait fitness (ON × OFF × kcat/KM or × kcat); settings: for ON × OFF × kcat, Value / ON × OFF × kcat, Fold vs wt / ON × OFF, fold vs wt / ON × OFF (parameters with tembotrione): Table 5, tembotrione; for ON × OFF × kcat, Fold vs wt / ON × OFF, fold vs wt: fold vs maize wild type HPPD; for ON × OFF (parameters with tembotrione): insensitivity parameter
How it was run: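 Trait fitness combines catalysis and insensitivity as kcat/KM × ON rate ratio × OFF rate ratio. The insensitivity parameter is the product of ON and OFF rate ratios, used in place of KD because the ON rate ratio is inverse.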

[6] = DKN (diketonitrile form of isoxaflutole)

ON ratio (parameters with tembotrione) [1]	OFF ratio (parameters with tembotrione) [2]	Insensitivity parameter, ON × OFF [5, 6]	Insensitivity parameter, ON × OFF ([5]; Mesotrione, Table 6)	Insensitivity parameter, ON × OFF ([5]; Sulcotrione)	ON × OFF, fold vs wt [5]	ON × OFF (parameters with tembotrione) [5]	Insensitivity parameter, ON × OFF ([5]; Tembotrione)	Insensitivity parameter, ON × OFF ([5]; Topramezon)	Molecule	Km [3]	kcat [3]	kcat [4]	ON × OFF × kcat, Value [5]	ON × OFF × kcat, Fold vs wt [5]
0.74	0.14	0.21	0.41	0.50	20.2	0.10	0.17	0.23	214T: single substitution 214T in SEQ ID NO:2 (protein, Zea mays variant form created by artificial means.) MGPTPTATAAGAAVAAASAAEQAAFRLVGHRNFVRFNPRSDRFQTLAFHHVELWCADAASAAGRFSFALGVPLAARSDLSTGNSAHASLLLRSGSLSLLFTAPYAHGADAATAALPSFSAAAARRFAADHGLAVRAVALRVADAEDAFRASVAAGARPAFGPVDLGRGFRLAEVELYGDVVLRYVSYPDGAAGEPFLPGFEGVASPGAADYGLTRFDHIVGNVPELAPAAAYMAGFTGFHEFAEFTTEDVGTTESGLNSMALANNSENVLLPLNEPVHGTKRRSQIQTFLDHHGGPGVQHIALASDDVLRTLREMRARSAMGGFEFLPPPLSDYYDGVRRCAGDVLTEAQINECQELGVMVDRDDQGVLLQIFTKPVGDRPTFFLEIIQRIGCMEKDEKGQEYQKGGCGGFGKGNFGQLFKSIEDYEKSLEAKQAAAAATAQGS	2940 nM	84.2 min⁻¹	39.2 min⁻¹	4.03	3.76
0.80	0.16	0.26	0.53	0.59	24.5	0.13	0.19	0.27	431F: single substitution 431F in SEQ ID NO:2 (protein, Zea mays variant form created by artificial means.) MGPTPTATAAGAAVAAASAAEQAAFRLVGHRNFVRFNPRSDRFQTLAFHHVELWCADAASAAGRFSFALGVPLAARSDLSTGNSAHASLLLRSGSLSLLFTAPYAHGADAATAALPSFSAAAARRFAADHGLAVRAVALRVADAEDAFRASVAAGARPAFGPVDLGRGFRLAEVELYGDVVLRYVSYPDGAAGEPFLPGFEGVASPGAADYGLSRFDHIVGNVPELAPAAAYMAGFTGFHEFAEFTTEDVGTTESGLNSMALANNSENVLLPLNEPVHGTKRRSQIQTFLDHHGGPGVQHIALASDDVLRTLREMRARSAMGGFEFLPPPLSDYYDGVRRCAGDVLTEAQINECQELGVMVDRDDQGVLLQIFTKPVGDRPTFFLEIIQRIGCMEKDEKGQEYQKGGCGGFGKGNFGQLFKSIEDYEKSLFAKQAAAAATAQGS	1770 nM	30.8 min⁻¹	28.9 min⁻¹	3.61	3.37
0.79	0.15	0.26	0.52	0.63	23.2	0.12	0.22	0.28	227G: single substitution 227G in SEQ ID NO:2 (protein, Zea mays variant form created by artificial means.) MGPTPTATAAGAAVAAASAAEQAAFRLVGHRNFVRFNPRSDRFQTLAFHHVELWCADAASAAGRFSFALGVPLAARSDLSTGNSAHASLLLRSGSLSLLFTAPYAHGADAATAALPSFSAAAARRFAADHGLAVRAVALRVADAEDAFRASVAAGARPAFGPVDLGRGFRLAEVELYGDVVLRYVSYPDGAAGEPFLPGFEGVASPGAADYGLSRFDHIVGNVPELGPAAAYMAGFTGFHEFAEFTTEDVGTTESGLNSMALANNSENVLLPLNEPVHGTKRRSQIQTFLDHHGGPGVQHIALASDDVLRTLREMRARSAMGGFEFLPPPLSDYYDGVRRCAGDVLTEAQINECQELGVMVDRDDQGVLLQIFTKPVGDRPTFFLEIIQRIGCMEKDEKGQEYQKGGCGGFGKGNFGQLFKSIEDYEKSLEAKQAAAAATAQGS	2610 nM	45.3 min⁻¹	34.6 min⁻¹	4.09	3.83

The next lines start with the molecule.

Molecule	ON ratio (parameters with tembotrione) [1]	OFF ratio (parameters with tembotrione) [2]	Insensitivity parameter, ON × OFF [5, 6]	Insensitivity parameter, ON × OFF ([5]; Mesotrione, Table 6)	Insensitivity parameter, ON × OFF ([5]; Sulcotrione)	ON × OFF, fold vs wt [5]	ON × OFF (parameters with tembotrione) [5]	Insensitivity parameter, ON × OFF ([5]; Tembotrione)	Insensitivity parameter, ON × OFF ([5]; Topramezon)	Km [3]	kcat [3]	kcat [4]	ON × OFF × kcat, Value [5]	ON × OFF × kcat, Fold vs wt [5]
189P: single substitution 189P in SEQ ID NO:2 (protein, Zea mays variant form created by artificial means.) MGPTPTATAAGAAVAAASAAEQAAFRLVGHRNFVRFNPRSDRFQTLAFHHVELWCADAASAAGRFSFALGVPLAARSDLSTGNSAHASLLLRSGSLSLLFTAPYAHGADAATAALPSFSAAAARRFAADHGLAVRAVALRVADAEDAFRASVAAGARPAFGPVDLGRGFRLAEVELYGDVVLRYVSYPPGAAGEPFLPGFEGVASPGAADYGLSRFDHIVGNVPELAPAAAYMAGFTGFHEFAEFTTEDVGTTESGLNSMALANNSENVLLPLNEPVHGTKRRSQIQTFLDHHGGPGVQHIALASDDVLRTLREMRARSAMGGFEFLPPPLSDYYDGVRRCAGDVLTEAQINECQELGVMVDRDDQGVLLQIFTKPVGDRPTFFLEIIQRIGCMEKDEKGQEYQKGGCGGFGKGNFGQLFKSIEDYEKSLEAKQAAAAATAQGS	0.76	0.22	0.32	0.51	0.62	32.3	0.16	0.25	0.31	3350 nM	41.8 min⁻¹	26.2 min⁻¹	4.31	4.02
205T: single substitution 205T in SEQ ID NO:2 (protein, Zea mays variant form created by artificial means.) MGPTPTATAAGAAVAAASAAEQAAFRLVGHRNFVRFNPRSDRFQTLAFHHVELWCADAASAAGRFSFALGVPLAARSDLSTGNSAHASLLLRSGSLSLLFTAPYAHGADAATAALPSFSAAAARRFAADHGLAVRAVALRVADAEDAFRASVAAGARPAFGPVDLGRGFRLAEVELYGDVVLRYVSYPDGAAGEPFLPGFEGVATPGAADYGLSRFDHIVGNVPELAPAAAYMAGFTGFHEFAEFTTEDVGTTESGLNSMALANNSENVLLPLNEPVHGTKRRSQIQTFLDHHGGPGVQHIALASDDVLRTLREMRARSAMGGFEFLPPPLSDYYDGVRRCAGDVLTEAQINECQELGVMVDRDDQGVLLQIFTKPVGDRPTFFLEIIQRIGCMEKDEKGQEYQKGGCGGFGKGNFGQLFKSIEDYEKSLEAKQAAAAATAQGS	0.74	0.20	0.30	0.47	0.60	29.0	0.15	0.22	0.29	2720 nM	34.4 min⁻¹	25.1 min⁻¹	3.72	3.48
191L: single substitution 191L in SEQ ID NO:2 (protein, Zea mays variant form created by artificial means.) MGPTPTATAAGAAVAAASAAEQAAFRLVGHRNFVRFNPRSDRFQTLAFHHVELWCADAASAAGRFSFALGVPLAARSDLSTGNSAHASLLLRSGSLSLLFTAPYAHGADAATAALPSFSAAAARRFAADHGLAVRAVALRVADAEDAFRASVAAGARPAFGPVDLGRGFRLAEVELYGDVVLRYVSYPDGLAGEPFLPGFEGVASPGAADYGLSRFDHIVGNVPELAPAAAYMAGFTGFHEFAEFTTEDVGTTESGLNSMALANNSENVLLPLNEPVHGTKRRSQIQTFLDHHGGPGVQHIALASDDVLRTLREMRARSAMGGFEFLPPPLSDYYDGVRRCAGDVLTEAQINECQELGVMVDRDDQGVLLQIFTKPVGDRPTFFLEIIQRIGCMEKDEKGQEYQKGGCGGFGKGNFGQLFKSIEDYEKSLEAKQAAAAATAQGS	0.77	0.20	0.38	0.45	0.56	30.5	0.16	0.33	0.37	2740 nM	32.9 min⁻¹	21.5 min⁻¹	3.35	3.13
